The source of these data is patent US20240228584A1 (FBD BIOLOGICS, published 2024).

As a reminder, the EC50 is the midpoint of the concentration-response curve. High values mean a less potent agent, low ones a more potent agent. A word on the EC50 (read off the curve): it is the concentration giving half of the maximal effect. Low values mean a more potent agent, high ones a less potent agent.

To fix the notation:
B1: human TGFβ3 (ligand, UniProt P10600 301-412, looked up)
chain: ALDTNYCFRNLEENCCVRPLYIDFRQDLGWKWVHEPKGYYANFCSGPCPYLRSADTTHSTVLGLYNTLNPEASASPCCVPQDLEPLTILYYVGRTPKVEQLSNMVVKSCKCS
B2: G4_TGFβRII (wt) (Fc fusion)
chain: IPPHVQKSVNNDMIVTDNNGAVKFPQLCKFCDVRFSTCDNQKSCMSNCSITSICEKPQEVCVAVWRKNDENITLETVCHDPKLPYHDFILEDAASPKCIMKEKKKPGETFFMCSCSSDECNDNIIFSEEYNTSNPD
notes: TGFβRII extracellular domain linked to an IgG4 Fc region; Fc is placed first here only because of the name G4_TGFβRII; also called wild-type G4_TGFβRII protein; not shown: Fc region of IgG4 (and any linker)

For assay [1], the target named is B2. Description: ELISA, plate coated with 0.5 ug/ml human TGFβ3, 1 h incubation, HRP secondary antibody, OD450. On the procedure:
(§1) A 96-well EIA microplate was coated with 0.5 ug/ml human TGFβ (TGFβ1, TGFβ2, or TGFβ3) overnight at 4° C. […] The unbound proteins were removed by washing the wells with 1×PBST (1×PBS containing 0.05% Tween 20) three times. A HRP-conjugated secondary antibody (1:5000) was added to the wells at room temperature (RT) for 1 hour. After the incubation, excess secondary antibodies were removed by washing the wells with 1×PBST three times. Finally, 3,3′,5,5′-Tetramethylbenzidine (TMB) was added for color development. The reaction was stopped and HRP activity was measured using a spectrophotometer at 450 nm.
A general note: In an ELISA, binding on a coated surface is turned into a signal by an enzyme label.

Assay [2] deals with T1, human TGFβ1 (human, UniProt P01137 279-390). As to the kind of experiment: cell-based or functional assay.
The target of assay [3] is B1. As to the kind of experiment: cell-based or functional assay.
Assay [4] addresses T1, human TGFβ1. As to the kind of experiment: ELISA (on rate), plate coated with 0.5 ug/ml human TGFβ1, 5 min incubation, OD450. As for the experimental part: For on-rate binding ability, a 96-well EIA microplate was coated with 0.5 μg/ml human TGFβ (TGFβ1) overnight at 4° C. […] The unbound proteins were removed by washing the wells with 1×PBST (1×PBS containing 0.1% Tween 20) three times. A HRP-conjugated secondary antibody (1:5000) was added to the wells at RT for 1 hour. After the incubation, excess secondary antibodies were removed by washing the wells with 1×PBST three times. Finally, 3,3′,5,5′-Tetramethylbenzidine (TMB) was added for color development. The reaction was stopped and HRP activity was measured using a spectrophotometer at 450 nm.

The target in assay [5] is T1, human TGFβ1. As to the kind of experiment: ELISA, plate coated with 0.5 ug/ml human TGFβ1, 1 h incubation, HRP secondary antibody, OD450. As for the experimental part:
as §1

The target in assay [6] is B1. Description: ELISA, plate coated with 0.5 ug/ml human TGFβ3, 1 h incubation, HRP secondary antibody, OD450. On the procedure:
as §1

Assay [7] addresses T1, human TGFβ1. As to the kind of experiment: ELISA (off rate), plate coated with 0.5 ug/ml human TGFβ1, 1 h incubation, then 2 h wash on a shaker, OD450. On the procedure:
A HRP-conjugated secondary antibody (1:5000) was added to the wells at RT for 1 hour. After the incubation, excess secondary antibodies were removed by washing the wells with 1×PBST three times. Finally, 3,3′,5,5′-Tetramethylbenzidine (TMB) was added for color development. The reaction was stopped and HRP activity was measured using a spectrophotometer at 450 nm.

T1 sequence (P01137 279-390 limits assumed): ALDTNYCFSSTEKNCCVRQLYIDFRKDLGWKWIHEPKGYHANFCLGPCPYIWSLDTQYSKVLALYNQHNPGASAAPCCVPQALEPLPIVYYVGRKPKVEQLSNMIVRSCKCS

B1: in assay [1], the binding result is given as “binds”.
For the molecule B2, the “IC50 (read off the curve)” value in assay [2] was approximately 1 nM; in assay [3], approximately 3 nM. In assay [4], this molecule showed a 50% effective concentration (EC50) of 10.8 nM. Moreover, the entries for the “EC50 (read off the curve)” value in assay [5], in assay [6] and in assay [7] were approximately 6 nM, approximately 2 nM and approximately 4 nM, respectively.
